Publication PMC7469494 (Autophagy, 2019)

Legend:
Vac8[40–578] = target: T1, Vac8[40–578] (S. cerevisiae, UniProt P39968 40-578); assay: SAXS
T1 sequence (looked up): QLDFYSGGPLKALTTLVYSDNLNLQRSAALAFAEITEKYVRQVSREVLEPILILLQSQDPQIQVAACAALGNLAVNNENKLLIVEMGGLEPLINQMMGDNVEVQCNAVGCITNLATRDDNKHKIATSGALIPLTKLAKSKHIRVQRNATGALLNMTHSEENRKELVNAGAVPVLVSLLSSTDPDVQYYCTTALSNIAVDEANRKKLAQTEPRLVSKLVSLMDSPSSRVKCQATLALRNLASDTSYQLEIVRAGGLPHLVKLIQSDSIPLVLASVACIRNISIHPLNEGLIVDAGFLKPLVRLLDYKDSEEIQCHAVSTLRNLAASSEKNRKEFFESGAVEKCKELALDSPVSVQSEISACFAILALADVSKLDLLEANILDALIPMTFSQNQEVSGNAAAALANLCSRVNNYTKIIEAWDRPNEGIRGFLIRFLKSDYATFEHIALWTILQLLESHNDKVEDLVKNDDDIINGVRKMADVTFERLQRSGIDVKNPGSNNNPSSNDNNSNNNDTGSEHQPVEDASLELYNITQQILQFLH

full-length Vac8 = target: T2, full-length Vac8 (S. cerevisiae, UniProt P39968 1-578); assay: ITC
T2 sequence (looked up): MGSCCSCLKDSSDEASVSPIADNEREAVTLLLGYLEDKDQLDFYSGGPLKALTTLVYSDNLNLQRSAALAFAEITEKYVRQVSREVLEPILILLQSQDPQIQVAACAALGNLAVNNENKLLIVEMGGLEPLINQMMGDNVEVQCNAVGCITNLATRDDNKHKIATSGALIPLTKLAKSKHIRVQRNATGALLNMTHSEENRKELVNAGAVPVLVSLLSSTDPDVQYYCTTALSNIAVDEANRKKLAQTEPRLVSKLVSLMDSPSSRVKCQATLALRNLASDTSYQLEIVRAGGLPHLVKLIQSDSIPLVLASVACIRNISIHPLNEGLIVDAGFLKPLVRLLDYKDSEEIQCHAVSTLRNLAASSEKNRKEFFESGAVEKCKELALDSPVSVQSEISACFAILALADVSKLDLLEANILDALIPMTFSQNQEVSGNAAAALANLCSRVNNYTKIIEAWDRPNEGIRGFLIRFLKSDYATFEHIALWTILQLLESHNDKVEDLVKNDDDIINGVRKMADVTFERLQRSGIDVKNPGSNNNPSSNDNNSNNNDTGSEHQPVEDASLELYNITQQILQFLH

[1] = target: T3, Vac8[Δ19–33] (full-length Vac8 lacking the H1 helix, residues 19–33) (S. cerevisiae, UniProt P39968 1-578, Δ19–33); assay: ITC
T3 sequence (looked up): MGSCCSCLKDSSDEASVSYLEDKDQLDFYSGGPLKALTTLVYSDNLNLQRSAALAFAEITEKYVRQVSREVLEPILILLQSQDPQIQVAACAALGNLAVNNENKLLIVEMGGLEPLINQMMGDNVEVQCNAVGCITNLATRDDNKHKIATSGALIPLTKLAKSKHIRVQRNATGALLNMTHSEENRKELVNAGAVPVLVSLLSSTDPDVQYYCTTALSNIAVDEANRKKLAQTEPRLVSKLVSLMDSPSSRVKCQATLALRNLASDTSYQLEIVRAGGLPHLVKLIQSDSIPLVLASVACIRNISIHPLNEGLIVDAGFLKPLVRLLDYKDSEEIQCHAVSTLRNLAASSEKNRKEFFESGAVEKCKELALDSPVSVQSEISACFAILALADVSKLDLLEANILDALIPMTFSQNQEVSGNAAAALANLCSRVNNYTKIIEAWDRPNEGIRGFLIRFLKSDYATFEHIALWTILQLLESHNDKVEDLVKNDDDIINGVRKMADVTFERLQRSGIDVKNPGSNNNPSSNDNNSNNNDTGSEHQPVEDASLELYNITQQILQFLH

Vac8[40–515]^L55R = target: T4, Vac8[40–515]^L55R (S. cerevisiae, UniProt P39968 40-515, L55R); assay: SEC
T4 sequence (looked up): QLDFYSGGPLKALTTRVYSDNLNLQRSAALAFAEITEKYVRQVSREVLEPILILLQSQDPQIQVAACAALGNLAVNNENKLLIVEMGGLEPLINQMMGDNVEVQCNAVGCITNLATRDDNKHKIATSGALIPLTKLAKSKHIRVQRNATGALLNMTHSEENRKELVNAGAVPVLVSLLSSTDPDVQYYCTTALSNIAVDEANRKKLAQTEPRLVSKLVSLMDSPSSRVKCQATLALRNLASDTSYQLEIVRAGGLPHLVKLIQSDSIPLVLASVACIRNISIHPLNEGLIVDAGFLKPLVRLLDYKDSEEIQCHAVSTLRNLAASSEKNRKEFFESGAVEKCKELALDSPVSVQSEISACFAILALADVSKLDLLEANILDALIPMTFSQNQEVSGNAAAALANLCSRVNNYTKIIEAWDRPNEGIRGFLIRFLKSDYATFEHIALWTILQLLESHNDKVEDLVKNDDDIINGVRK

binding result (Vac8[40–578]): binds
binding result (full-length Vac8): binds
Kd [1]: 1460 nM
binding result (Vac8[40–515]^L55R): binds
B1: tAtg13 (Atg13 construct comprising residues 567–695) (domain or fragment, S. cerevisiae, UniProt Q06628 567-695, looked up)
chain: GGNSSTSALNSRRNSLDKSSNKQGMSGLPPIFGGESTSYHHDNKIQKYNQLGVEEDDDDENDRLLNQMGNSATKFKSSISPRSIDSISSSFIKSRIPIRQPYHYSQPTTAPFQAQAKFHKPANKLIDNG
